According to publication PMC8038991, “R-catcher, a potent molecular tool to unveil the arginylome” (Cellular and Molecular Life Sciences: CMLS, 2021):

System: R-catcher
Test: R-catcher pulldown of putative arginylated ER proteins, HeLa
Format: binding, human
Conditions: 5 µM MG132 plus 100 nM TG, RA competition, Fig. 6a
Description: For small-scale R-catcher pull-down assays, 300 µg of purified R-catcher was conjugated with 120 µl of Strep-Tactin sepharose resin by incubating overnight at 4 °C. To test R-catcher’s ability to capture known arginylated proteins, such as R-BiP, R-PDI, R-nsP4 and R-RGS4, plasmids encoding Ub-X-(BiP, PDI and nsP4) or MX-RGS4 (X = Arg or Val) were transiently transfected into HEK293 cells. After 24 h, cells were treated with 10 µM MG132 and 100 nM thapsigargin for another 24 h. Cells were harvested and lysed in hypotonic buffer and 300 µg total protein was incubate with 25 µl R-catcher-sepharose resin in binding buffer (20 mM HEPES pH 7.9, 0.05% Tween 20, 10% glycerol, 0.2 M KCl, protease inhibitor and phosphatase inhibitor) for 3 h with gentle rotation at 4 °C. After three washes with binding buffer, bound proteins were dissociated with 2 × SDS sample buffer and boiling at 100 °C and subjected to immunoblotting using anti-myc or flag antibodies.
Plasmids encoding the proteins were transiently transfected to HeLa cells for 24 h and stimulated with 5 µM MG132 plus 100 nM TG for another 24 h. Cell lysates were incubated with R-catcher immobilized on tactin beads for 3 h. After wash, bound proteins were eluted with 2 × SDS sample buffer followed by boiling at 100 °C for 10 min and visualized by western blot analysis. b R-catcher pulldown assays to validate ATE1-dependent arginylation of […]1, PRDX4, FBLN1 and CLUS. Plasmids encoding […]1, PRDX4, FBLN1 and CLUS were transiently transfected into + / + and ATE1^−/− MEFs for 24 h and stimulated with 5 µM MG132 plus 100 nM TG for another 9 h. Cell lysates were subjected to R-catcher pulldown, and bound proteins were detected by western blot analysis. c R-catcher pull-down assays to evaluate if the arginylation of FBNL1, SERPINH1, CLUS and PRDX4 is induced in response to MG132 plus thapsigargin. d X-peptide pulldown assays to confirm no interaction of R-catcher with Nt-Ala19 of SERPINH1 peptides and Nt-Trp38 of PRDX4 peptides. X-peptides where X is A19 (SignalP predicted P1’ site), E20 (next possible P1’ site predicted by PrediSi) or R19 (Arginylated form of Glu) for SERPINH1 and W38 (SignalP predicted P1’ site), E39 (next possible P1’ site predicted by PrediSi) or R38 (Arginylated form) for PRDX4. Biotinylated X-peptides immobilized on streptavidin agarose beads were incubated with affinity-purified GST-ZZ ([…]). Bound GST-ZZ (N132D) was detected by immunoblotting. e Identification of arginylated sites employing mutational analysis. Predicted P1’ sites of SERPINH1, PRDX4, CLUS and FBLN1 were substituted to Gly, and the inhibitory effect of the mutation on binding with R-catcher was examined by performing R-catcher pulldown assays

B1: LG3BP: lectin galactoside-binding soluble 3-binding protein (protein)
chain: VNDGDMRLADGGATNQGRVEIFYRGQWGTVCDNLWDLTDASVVCRALGFENATQALGRAAFGQGSGPIMLDEVQCTGTEASLADCKSLGWLKSNCRHERDAGVVCTNETRSTHTLDLSRELSEALGQIFDSQRGCDLSISVNVQGEDALGFCGHTVILTANLEAQALWKEPGSNVTMSVDAECVPMVRDLLRYFYSRRIDITLSSVKCFHKLASAYGARQLQGYCASLFAILLPQDPSFQMPLDLYAYAVATGDALLEKLCLQFLAWNFEALTQAEAWPSVPTDLLQLLLPRSDLAVPSELALLKAVDTWSWGERASHEEVEGLVEKIRFPMMLPEELFELQFNLSLYWSHEALFQKKTLQALEFHTVPFQLLARYKGLNLTEDTYKPRIYTSPTWSAFVTDSSWSARKSQLVYQSRRGPLVKYSSDYFQAPSDYRYYPYQSFQTPQHPSFLFQDKRVSWSLVYLPTIQSCWNYGFSCSSDELPVLGLTKSGGSDRTIAYENKALMLCEGLFVADVTDFEGWKAAIPSALDTNSSKSTSSFPCPAGHFNGFRTVIRPFYLTNSSGVD
modifications: left off: myc, end not stated, kept | His, end not stated, state not stated
Q: For B1, which “binding with R-catcher, Nt-Arg dependence” value is on record?
A: The value was “no significant binding affinity for R-catcher”.
